Test results reported in patent US10941182 (Amgen, dated 2021).
Starred links: 1 amine or outer side, 2 acyl side, 3 side chain; linkers in the order of their positions; H or OH if unused. Non-standard residues stand in square brackets, D forms with d. *: point of attachment. C18 diacid = O=C(O)CCCCCCCCCCCCCCCCC(=O)*; dBip = N[C@H](Cc1ccc(-c2ccccc2)cc1)C(=O)O; Oic = O=C(O)[C@@H]1C[C@@H]2CCCC[C@@H]2N1; dPhe(4-Cl) = N[C@H](Cc1ccc(Cl)cc1)C(=O)O; Heptadecanoyl = CCCCCCCCCCCCCCCCC(=O)*; Phe(4-I) = N[C@@H](Cc1ccc(I)cc1)C(=O)O; γGlu = O=C(O)[C@H](CCC(=O)[*:2])N[*:1]; 2Nal = N[C@@H](Cc1ccc2ccccc2c1)C(=O)O; Pentadecanoyl = CCCCCCCCCCCCCCC(=O)*; Tridecanoyl = CCCCCCCCCCCCC(=O)*; hArg = N=C(N)NCCCC[C@H](N)C(=O)O; Cha = N[C@@H](CC1CCCCC1)C(=O)O; NMeL = CN[C@@H](CC(C)C)C(=O)O; Nle = CCCC[C@H](N)C(=O)O; Orn = NCCC[C@H](N)C(=O)O; AEEA = NCCOCCOCC(=O)O

T1: human APJ receptor (human, UniProt P35414 1-380)
T1 sequence (looked up): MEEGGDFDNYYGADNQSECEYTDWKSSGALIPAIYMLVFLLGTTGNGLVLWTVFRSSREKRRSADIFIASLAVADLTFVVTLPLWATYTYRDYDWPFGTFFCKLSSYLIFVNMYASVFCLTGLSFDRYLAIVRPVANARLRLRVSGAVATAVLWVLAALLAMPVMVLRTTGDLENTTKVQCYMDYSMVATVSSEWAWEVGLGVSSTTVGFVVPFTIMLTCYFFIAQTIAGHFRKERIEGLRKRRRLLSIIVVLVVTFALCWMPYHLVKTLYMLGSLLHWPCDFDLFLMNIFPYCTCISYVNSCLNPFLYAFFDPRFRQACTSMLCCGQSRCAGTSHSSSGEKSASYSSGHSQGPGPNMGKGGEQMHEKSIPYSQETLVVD

T2: rat APJ receptor (rat, UniProt Q9JHG3 1-377)
T2 sequence (looked up): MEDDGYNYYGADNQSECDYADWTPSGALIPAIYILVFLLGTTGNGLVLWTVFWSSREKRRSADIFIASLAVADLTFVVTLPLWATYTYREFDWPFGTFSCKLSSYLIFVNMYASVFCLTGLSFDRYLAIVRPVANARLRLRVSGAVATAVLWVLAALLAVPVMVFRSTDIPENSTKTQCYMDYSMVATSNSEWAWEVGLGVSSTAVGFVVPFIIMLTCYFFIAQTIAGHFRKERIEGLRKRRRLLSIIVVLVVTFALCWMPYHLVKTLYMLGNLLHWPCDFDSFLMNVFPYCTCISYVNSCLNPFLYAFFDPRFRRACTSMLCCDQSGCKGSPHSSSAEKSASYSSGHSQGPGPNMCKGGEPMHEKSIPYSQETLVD


Key:
human APJ receptor = target: T1, human APJ receptor; experiment: cell-based or functional assay
rat APJ receptor = target: T2, rat APJ receptor; experiment: cell-based or functional assay

Row | Binder | EC50 Human APJ Receptor (human APJ receptor) [nM] | EC50 Rat APJ Receptor (rat APJ receptor) [nM]
1 | Heptadecanoyl-[γGlu][AEEA][AEEA][Orn]F[hArg][hArg]QRP[hArg][NMeL]SHKG[Oic][Nle][2Nal]-OH (SMILES CCCCCCCCCCCCCCCCC(=O)N[C@@H](CCC(=O)NCCOCCOCC(=O)NCCOCCOCC(=O)N[C@@H](CCCN)C(=O)N[C@@H](Cc1ccccc1)C(=O)N[C@@H](CCCCNC(=N)N)C(=O)N[C@@H](CCCCNC(=N)N)C(=O)N[C@@H](CCC(N)=O)C(=O)N[C@@H](CCCNC(=N)N)C(=O)N1CCC[C@H]1C(=O)N[C@@H](CCCCNC(=N)N)C(=O)N(C)[C@@H](CC(C)C)C(=O)N[C@@H](CO)C(=O)N[C@@H](Cc1c[nH]cn1)C(=O)N[C@@H](CCCCN)C(=O)NCC(=O)N1[C@H](C(=O)N[C@@H](CCCC)C(=O)N[C@@H](Cc2ccc3ccccc3c2)C(=O)O)C[C@@H]2CCCC[C@@H]21)C(=O)O) [apelin polypeptide SEQ ID NO: 259] | 2.59 | 2.09
2 | Tridecanoyl-[γGlu][AEEA][AEEA][Orn]F[hArg][hArg]QRP[hArg][NMeL]SHKG[Oic][Nle][2Nal]-OH (SMILES CCCCCCCCCCCCC(=O)N[C@@H](CCC(=O)NCCOCCOCC(=O)NCCOCCOCC(=O)N[C@@H](CCCN)C(=O)N[C@@H](Cc1ccccc1)C(=O)N[C@@H](CCCCNC(=N)N)C(=O)N[C@@H](CCCCNC(=N)N)C(=O)N[C@@H](CCC(N)=O)C(=O)N[C@@H](CCCNC(=N)N)C(=O)N1CCC[C@H]1C(=O)N[C@@H](CCCCNC(=N)N)C(=O)N(C)[C@@H](CC(C)C)C(=O)N[C@@H](CO)C(=O)N[C@@H](Cc1c[nH]cn1)C(=O)N[C@@H](CCCCN)C(=O)NCC(=O)N1[C@H](C(=O)N[C@@H](CCCC)C(=O)N[C@@H](Cc2ccc3ccccc3c2)C(=O)O)C[C@@H]2CCCC[C@@H]21)C(=O)O) [apelin polypeptide SEQ ID NO: 257] | 1.49 | 3.14
3 | Pentadecanoyl-[γGlu][AEEA][AEEA][Orn]F[hArg][hArg]QRP[hArg][NMeL]SHKG[Oic][Nle][2Nal]-OH (SMILES CCCCCCCCCCCCCCC(=O)N[C@@H](CCC(=O)NCCOCCOCC(=O)NCCOCCOCC(=O)N[C@@H](CCCN)C(=O)N[C@@H](Cc1ccccc1)C(=O)N[C@@H](CCCCNC(=N)N)C(=O)N[C@@H](CCCCNC(=N)N)C(=O)N[C@@H](CCC(N)=O)C(=O)N[C@@H](CCCNC(=N)N)C(=O)N1CCC[C@H]1C(=O)N[C@@H](CCCCNC(=N)N)C(=O)N(C)[C@@H](CC(C)C)C(=O)N[C@@H](CO)C(=O)N[C@@H](Cc1c[nH]cn1)C(=O)N[C@@H](CCCCN)C(=O)NCC(=O)N1[C@H](C(=O)N[C@@H](CCCC)C(=O)N[C@@H](Cc2ccc3ccccc3c2)C(=O)O)C[C@@H]2CCCC[C@@H]21)C(=O)O) [apelin polypeptide SEQ ID NO: 258] | 1.75 | 2.57
4 | Ac-[hArg][hArg]Q[dR]P[dR][NMeL]SHKG[Oic][Phe(4-I)]P[dBip]-OH [apelin polypeptide SEQ ID NO: 20] | 0.189 | 0.706
5 | {C18 diacid}-[γGlu][AEEA][AEEA][Orn]F[hArg][hArg]QRP[hArg][NMeL]SHKG[Oic][Nle][2Nal]-OH (SMILES CCCC[C@H](NC(=O)[C@@H]1C[C@@H]2CCCC[C@@H]2N1C(=O)CNC(=O)[C@H](CCCCN)NC(=O)[C@H](Cc1c[nH]cn1)NC(=O)[C@H](CO)NC(=O)[C@H](CC(C)C)N(C)C(=O)[C@H](CCCCNC(=N)N)NC(=O)[C@@H]1CCCN1C(=O)[C@H](CCCNC(=N)N)NC(=O)[C@H](CCC(N)=O)NC(=O)[C@H](CCCCNC(=N)N)NC(=O)[C@H](CCCCNC(=N)N)NC(=O)[C@H](Cc1ccccc1)NC(=O)[C@H](CCCN)NC(=O)COCCOCCNC(=O)COCCOCCNC(=O)CC[C@H](NC(=O)CCCCCCCCCCCCCCCCC(=O)O)C(=O)O)C(=O)N[C@@H](Cc1ccc2ccccc2c1)C(=O)O) [apelin polypeptide SEQ ID NO: 260] | 48.5 | 75

The remaining lines, values ahead:

Row | EC50 Human APJ Receptor (human APJ receptor) [nM] | EC50 Rat APJ Receptor (rat APJ receptor) [nM] | Binder
6 | 3.99 | 5.91 | Heptadecanoyl-[γGlu][AEEA][AEEA][hArg][dR]Q[hArg]P[dR][NMeL]SHKG[Oic][Phe(4-I)]P[dBip]-OH (SMILES CCCCCCCCCCCCCCCCC(=O)N[C@@H](CCC(=O)NCCOCCOCC(=O)NCCOCCOCC(=O)N[C@@H](CCCCNC(=N)N)C(=O)N[C@H](CCCNC(=N)N)C(=O)N[C@@H](CCC(N)=O)C(=O)N[C@@H](CCCCNC(=N)N)C(=O)N1CCC[C@H]1C(=O)N[C@H](CCCNC(=N)N)C(=O)N(C)[C@@H](CC(C)C)C(=O)N[C@@H](CO)C(=O)N[C@@H](Cc1c[nH]cn1)C(=O)N[C@@H](CCCCN)C(=O)NCC(=O)N1[C@H](C(=O)N[C@@H](Cc2ccc(I)cc2)C(=O)N2CCC[C@H]2C(=O)N[C@H](Cc2ccc(-c3ccccc3)cc2)C(=O)O)C[C@@H]2CCCC[C@@H]21)C(=O)O) [apelin polypeptide SEQ ID NO: 263]
7 | 4.74 | 9.38 | Tridecanoyl-[γGlu][AEEA][AEEA][hArg][dR]Q[hArg]P[dR][NMeL]SHKG[Oic][Phe(4-I)]P[dBip]-OH (SMILES CCCCCCCCCCCCC(=O)N[C@@H](CCC(=O)NCCOCCOCC(=O)NCCOCCOCC(=O)N[C@@H](CCCCNC(=N)N)C(=O)N[C@H](CCCNC(=N)N)C(=O)N[C@@H](CCC(N)=O)C(=O)N[C@@H](CCCCNC(=N)N)C(=O)N1CCC[C@H]1C(=O)N[C@H](CCCNC(=N)N)C(=O)N(C)[C@@H](CC(C)C)C(=O)N[C@@H](CO)C(=O)N[C@@H](Cc1c[nH]cn1)C(=O)N[C@@H](CCCCN)C(=O)NCC(=O)N1[C@H](C(=O)N[C@@H](Cc2ccc(I)cc2)C(=O)N2CCC[C@H]2C(=O)N[C@H](Cc2ccc(-c3ccccc3)cc2)C(=O)O)C[C@@H]2CCCC[C@@H]21)C(=O)O) [apelin polypeptide SEQ ID NO: 261]
8 | 145 | 193 | {C18 diacid}-[γGlu][AEEA][AEEA][hArg][dR]Q[hArg]P[dR][NMeL]SHKG[Oic][Phe(4-I)]P[dBip]-OH (SMILES CC(C)C[C@@H](C(=O)N[C@@H](CO)C(=O)N[C@@H](Cc1c[nH]cn1)C(=O)N[C@@H](CCCCN)C(=O)NCC(=O)N1[C@H](C(=O)N[C@@H](Cc2ccc(I)cc2)C(=O)N2CCC[C@H]2C(=O)N[C@H](Cc2ccc(-c3ccccc3)cc2)C(=O)O)C[C@@H]2CCCC[C@@H]21)N(C)C(=O)[C@@H](CCCNC(=N)N)NC(=O)[C@@H]1CCCN1C(=O)[C@H](CCCCNC(=N)N)NC(=O)[C@H](CCC(N)=O)NC(=O)[C@@H](CCCNC(=N)N)NC(=O)[C@H](CCCCNC(=N)N)NC(=O)COCCOCCNC(=O)COCCOCCNC(=O)CC[C@H](NC(=O)CCCCCCCCCCCCCCCCC(=O)O)C(=O)O) [apelin polypeptide SEQ ID NO: 264]
9 | 4.42 | 6.71 | Pentadecanoyl-[γGlu][AEEA][AEEA][hArg][dR]Q[hArg]P[dR][NMeL]SHKG[Oic][Phe(4-I)]P[dBip]-OH (SMILES CCCCCCCCCCCCCCC(=O)N[C@@H](CCC(=O)NCCOCCOCC(=O)NCCOCCOCC(=O)N[C@@H](CCCCNC(=N)N)C(=O)N[C@H](CCCNC(=N)N)C(=O)N[C@@H](CCC(N)=O)C(=O)N[C@@H](CCCCNC(=N)N)C(=O)N1CCC[C@H]1C(=O)N[C@H](CCCNC(=N)N)C(=O)N(C)[C@@H](CC(C)C)C(=O)N[C@@H](CO)C(=O)N[C@@H](Cc1c[nH]cn1)C(=O)N[C@@H](CCCCN)C(=O)NCC(=O)N1[C@H](C(=O)N[C@@H](Cc2ccc(I)cc2)C(=O)N2CCC[C@H]2C(=O)N[C@H](Cc2ccc(-c3ccccc3)cc2)C(=O)O)C[C@@H]2CCCC[C@@H]21)C(=O)O) [apelin polypeptide SEQ ID NO: 262]
10 | 5.81 | 33.2 | Tridecanoyl-[γGlu][AEEA][AEEA]Q[dR]P[dR][Cha]SHKG[Oic][Nle]P[dPhe(4-Cl)]-OH (SMILES CCCCCCCCCCCCC(=O)N[C@@H](CCC(=O)NCCOCCOCC(=O)NCCOCCOCC(=O)N[C@@H](CCC(N)=O)C(=O)N[C@H](CCCNC(=N)N)C(=O)N1CCC[C@H]1C(=O)N[C@H](CCCNC(=N)N)C(=O)N[C@@H](CC1CCCCC1)C(=O)N[C@@H](CO)C(=O)N[C@@H](Cc1c[nH]cn1)C(=O)N[C@@H](CCCCN)C(=O)NCC(=O)N1[C@H](C(=O)N[C@@H](CCCC)C(=O)N2CCC[C@H]2C(=O)N[C@H](Cc2ccc(Cl)cc2)C(=O)O)C[C@@H]2CCCC[C@@H]21)C(=O)O) [apelin polypeptide SEQ ID NO: 266]
11 | 1.2 | 14.5 | Tridecanoyl-[γGlu][AEEA][AEEA][dQ][hArg]P[dR][Cha]SHKG[Oic][Nle]P[dPhe(4-Cl)]-OH (SMILES CCCCCCCCCCCCC(=O)N[C@@H](CCC(=O)NCCOCCOCC(=O)NCCOCCOCC(=O)N[C@H](CCC(N)=O)C(=O)N[C@@H](CCCCNC(=N)N)C(=O)N1CCC[C@H]1C(=O)N[C@H](CCCNC(=N)N)C(=O)N[C@@H](CC1CCCCC1)C(=O)N[C@@H](CO)C(=O)N[C@@H](Cc1c[nH]cn1)C(=O)N[C@@H](CCCCN)C(=O)NCC(=O)N1[C@H](C(=O)N[C@@H](CCCC)C(=O)N2CCC[C@H]2C(=O)N[C@H](Cc2ccc(Cl)cc2)C(=O)O)C[C@@H]2CCCC[C@@H]21)C(=O)O) [apelin polypeptide SEQ ID NO: 265]
